Values of other authors, collected in patent US20230416704A1, “LACTONASE AND STABILIZED MUTANTS THEREOF FOR TREATING FUNGAL INFECTIONS IN PLANTS” (MIGAL GALILEE RESEARCH INSTITUTE LTD., priority 2020, published 2023).

Settings: as shown in WO 2020/255131; cited from earlier work

B1: H172Y: M. tuberculosis phosphotriesterase-like lactonase (PPH) with H172 substituted by tyrosine (protein)
chain: MISEFPELNTARGPIDTADLGVTLMHEHVFIMTTEIAQNYPEAWGDEDKRVAGAIARLGELKARGVDTIVDLTVIGLGRYIPRIARVAAATELNIVVATGLYTYNDVPFYFHYLGPGAQLDGPEIMTDMFVRDIEHGIADTGIKAGILKCATDEPGLTPGVERVLRAVAQAYKRTGAPISTHTHAGLRRGLDQQRIFAEEGVDLSRVVIGHCGDSTDVGYLEELIAAGSYLGMDRFGVDVISPFQDRVNIVARMCERGHADKMVLSHDACCYFDALPEELVPVAMPNWHYLHIHNDVIPALKQHGVTDEQLHTMLVDNPRRIFERQGGYQ
temperature of 50% residual activity: about 65 °C
